The target in the experiment is Stat1, unphosphorylated, endogenous in 293 T cells (human (endogenous in 293 T)) (UniProt P42224).
Sequence of UniProt P42224 (P42224 whole entry): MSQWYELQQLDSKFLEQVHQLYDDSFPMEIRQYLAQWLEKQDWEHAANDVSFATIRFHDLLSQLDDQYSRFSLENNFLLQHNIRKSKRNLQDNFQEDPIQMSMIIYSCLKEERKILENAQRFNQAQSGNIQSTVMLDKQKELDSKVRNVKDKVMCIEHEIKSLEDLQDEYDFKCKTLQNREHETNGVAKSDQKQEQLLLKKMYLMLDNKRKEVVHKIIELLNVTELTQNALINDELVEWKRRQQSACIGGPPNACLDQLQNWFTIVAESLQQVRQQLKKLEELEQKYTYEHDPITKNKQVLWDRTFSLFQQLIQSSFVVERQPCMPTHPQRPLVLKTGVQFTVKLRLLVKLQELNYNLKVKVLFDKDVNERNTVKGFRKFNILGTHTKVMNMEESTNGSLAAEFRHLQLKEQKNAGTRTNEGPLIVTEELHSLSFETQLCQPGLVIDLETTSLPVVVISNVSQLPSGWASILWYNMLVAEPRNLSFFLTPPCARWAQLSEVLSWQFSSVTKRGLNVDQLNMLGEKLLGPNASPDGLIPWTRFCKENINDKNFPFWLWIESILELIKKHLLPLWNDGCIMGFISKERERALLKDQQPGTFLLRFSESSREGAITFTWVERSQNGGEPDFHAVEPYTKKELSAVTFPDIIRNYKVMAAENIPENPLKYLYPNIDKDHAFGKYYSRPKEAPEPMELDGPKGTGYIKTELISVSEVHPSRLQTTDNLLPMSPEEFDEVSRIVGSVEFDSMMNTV

As to “myc-tagged HPIV1 C′ protein with the F170S substitution (C′^F170S-myc) (natural protein)”, the percent of F170S HPIV1-infected Vero cells positive for nuclear Stat1 after IFN-β (1,000 IU/mL, 60 min), confocal microscopy (untagged C proteins made by the virus; Stat1 of Vero cells) is 82%.
Substance “myc-tagged HPIV1 C′ protein, wild type (C′^WT-myc) (natural protein)” gave a percent of WT HPIV1-infected Vero cells positive for nuclear Stat1 after IFN-β (1,000 IU/mL, 60 min), confocal microscopy (untagged C proteins made by the virus; Stat1 of Vero cells) of 2%.
